{"source": "patent US20200262867A1", "about": "(WNTRX PHARMACEUTICALS, published 2020)", "note": "Bridges are numbered along the chain shown (N, C = ends). Primed or numbered codes have the meaning given here. Where no end group is shown, it is not given here. [ ]: non-standard residue; d: D form. The star is where a group is joined. NMeQ′ = N-methylglutamine (N-alpha-methyl, stereo named both D and L in the filing); Phe(3,4-Cl2) = N[C@@H](Cc1ccc(Cl)c(Cl)c1)C(=O)O; PEG4″ = PEG4 (tetraethylene glycol) spacer; Phe(4-Cl) = N[C@@H](Cc1ccc(Cl)cc1)C(=O)O; Phe(4-F) = N[C@@H](Cc1ccc(F)cc1)C(=O)O; 2Nal = N[C@@H](Cc1ccc2ccccc2c1)C(=O)O; Palmitoyl = CCCCCCCCCCCCCCCC(=O)*; Cha = N[C@@H](CC1CCCCC1)C(=O)O; S5 = C=CCCC[C@](C)(N)C(=O)O; NMeC = CN[C@@H](CS)C(=O)O"}
{"target": "T1, β-catenin (UniProt P35222 1-781, limits assumed)", "T1 construct": "also called beta-catenin", "T1 sequence (looked up)": "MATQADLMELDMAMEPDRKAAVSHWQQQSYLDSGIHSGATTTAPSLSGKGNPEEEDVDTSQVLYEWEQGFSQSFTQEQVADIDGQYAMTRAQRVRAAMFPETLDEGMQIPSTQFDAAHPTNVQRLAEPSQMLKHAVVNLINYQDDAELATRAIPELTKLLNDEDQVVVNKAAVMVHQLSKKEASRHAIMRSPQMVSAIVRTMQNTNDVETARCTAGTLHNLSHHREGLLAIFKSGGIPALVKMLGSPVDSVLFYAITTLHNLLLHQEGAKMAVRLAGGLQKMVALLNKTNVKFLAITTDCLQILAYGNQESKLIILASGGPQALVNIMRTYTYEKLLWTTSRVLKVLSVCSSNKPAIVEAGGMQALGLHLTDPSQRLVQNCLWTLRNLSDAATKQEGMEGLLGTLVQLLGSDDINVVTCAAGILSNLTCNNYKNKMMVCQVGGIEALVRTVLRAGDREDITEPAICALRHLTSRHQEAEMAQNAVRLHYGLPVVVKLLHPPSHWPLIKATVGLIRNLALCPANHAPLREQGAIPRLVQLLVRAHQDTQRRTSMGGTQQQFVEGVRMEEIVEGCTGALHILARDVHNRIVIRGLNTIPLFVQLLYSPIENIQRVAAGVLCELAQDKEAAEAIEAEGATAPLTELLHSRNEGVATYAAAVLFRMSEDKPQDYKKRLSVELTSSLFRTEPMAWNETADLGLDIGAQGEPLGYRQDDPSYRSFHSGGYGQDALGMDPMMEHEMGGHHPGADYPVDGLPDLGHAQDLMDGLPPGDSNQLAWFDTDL", "experiment": "ALPHA Screen (BCL9/β-catenin);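 note: bead proximity readout with the polypeptide linked to donor beads and β-catenin fixed on acceptor beads, their binding bringing the beads close enough to emit signal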", "units": {"IC50": "nM"}, "from_the_text": "In this assay, a polypeptide is conjugated to a donor bead and its target protein (i.e., β-catenin) is attached to an acceptor bead. When the two beads are in proximity due to the binding of the polypeptide to the target protein, a signal is generated and the binding affinity of the polypeptide can be quantitatively calculated. The assay may be conducted in the presence or absence of an unconjugated control polypeptide."}
{"binder": "Ac-HRQRSLQTLR[S5]IQR[S5][Phe(4-Cl)][2Nal]-NH2 (staple 11-15; SMILES CC[C@H](C)[C@@H]1NC(=O)[C@@](C)(NC(=O)[C@H](CCCNC(=N)N)NC(=O)[C@H](CC(C)C)NC(=O)[C@@H](NC(=O)[C@H](CCC(N)=O)NC(=O)[C@H](CC(C)C)NC(=O)[C@H](CO)NC(=O)[C@H](CCCNC(=N)N)NC(=O)[C@H](CCC(N)=O)NC(=O)[C@H](CCCNC(=N)N)NC(=O)[C@H](Cc2c[nH]cn2)NC(C)=O)[C@@H](C)O)CCCC=CCCC[C@@](C)(C(=O)N[C@@H](Cc2ccc(Cl)cc2)C(=O)N[C@@H](Cc2ccc3ccccc3c2)C(N)=O)NC(=O)[C@H](CCCNC(=N)N)NC(=O)[C@H](CCC(N)=O)NC1=O)", "note": "[SEQ ID NO: 196]", "IC50": 63}
{"binder": "Ac-HRQRS[Cha][NMeQ′]TLR[S5]IQR[S5][Phe(4-F)][2Nal]-NH2 (staple 11-15; not fully specified; printed as HRQRS(Cha)(N-methylQ)TLRXaa3IQRXaa6(4-F-Ph)(2-Nal))", "note": "[SEQ ID NO: 200]", "IC50": 324}
{"binder": "Ac-HR[NMeQ′]RSL[NMeQ′]TLR[S5]IQR[S5][Phe(4-F)][2Nal]-NH2 (staple 11-15; not fully specified; printed as HR(N-methylQ)RSL(N-methylQ)TLRXIQRX(4-F-Ph)(2-Nal), X/X stapled, (S) α-methyl, N-terminal Ac, C-terminal NH2)", "note": "[SEQ ID NO: 202]", "IC50": 294}
{"binder": "Ac-HR[NMeQ′]RSL[NMeQ′]TLR[S5]IQR[S5][Phe(3,4-Cl2)][2Nal]-NH2 (staple 11-15; not fully specified; printed as HR(N-methylQ)RSL(N-methylQ)TLRXIQRX(3,4-diCl-Ph)(2-Nal), X/X stapled, (S) α-methyl, N-terminal Ac, C-terminal NH2)", "note": "[SEQ ID NO: 203]", "IC50": 312}
{"binder": "{Palmitoyl-PEG4″}-HRQRS[Cha][NMeQ′]TLR[S5]IQR[S5][Cha][2Nal]-NH2 (staple 11-15; not fully specified; printed as HRQRS(Cha)(N-methylQ)TLRXaa3IQRXaa6(Cha)(2-Nal))", "note": "[SEQ ID NO: 211]", "IC50": 305}
{"binder": "Ac-CRQRSLQTLR[S5]IQR[S5][Cha][2Nal]-NH2 (staple 11-15; SMILES CC[C@H](C)[C@@H]1NC(=O)[C@@](C)(NC(=O)[C@H](CCCNC(=N)N)NC(=O)[C@H](CC(C)C)NC(=O)[C@@H](NC(=O)[C@H](CCC(N)=O)NC(=O)[C@H](CC(C)C)NC(=O)[C@H](CO)NC(=O)[C@H](CCCNC(=N)N)NC(=O)[C@H](CCC(N)=O)NC(=O)[C@H](CCCNC(=N)N)NC(=O)[C@H](CS)NC(C)=O)[C@@H](C)O)CCCC=CCCC[C@@](C)(C(=O)N[C@@H](CC2CCCCC2)C(=O)N[C@@H](Cc2ccc3ccccc3c2)C(N)=O)NC(=O)[C@H](CCCNC(=N)N)NC(=O)[C@H](CCC(N)=O)NC1=O)", "note": "[SEQ ID NO: 216]", "IC50": 155}
{"binder": "Ac-[NMeC]RQRSLQTLR[S5]IQR[S5][Cha][2Nal]-NH2 (staple 11-15; SMILES CC[C@H](C)[C@@H]1NC(=O)[C@@](C)(NC(=O)[C@H](CCCNC(=N)N)NC(=O)[C@H](CC(C)C)NC(=O)[C@@H](NC(=O)[C@H](CCC(N)=O)NC(=O)[C@H](CC(C)C)NC(=O)[C@H](CO)NC(=O)[C@H](CCCNC(=N)N)NC(=O)[C@H](CCC(N)=O)NC(=O)[C@H](CCCNC(=N)N)NC(=O)[C@H](CS)N(C)C(C)=O)[C@@H](C)O)CCCC=CCCC[C@@](C)(C(=O)N[C@@H](CC2CCCCC2)C(=O)N[C@@H](Cc2ccc3ccccc3c2)C(N)=O)NC(=O)[C@H](CCCNC(=N)N)NC(=O)[C@H](CCC(N)=O)NC1=O)", "note": "[SEQ ID NO: 217]", "IC50": 384}
{"binder": "LQTLRDIQRML[2Nal]PD", "note": "[SEQ ID NO: 53]", "IC50": 27900}
